Test results published in article PMC3088832.

Target: Purified recombinant HIV gp120, biotinylated (HIV) (UniProt P04578)
Assay: SPR

## soluble recombinant human DC-SIGN extracellular domain (from UniProt Q9NNX6 59-404) (domain or fragment)
  percent less binding in 20 mM glucose than in 5 mM glucose: 33%
